The text below walks through data of paper PMC7855293 (Nature structural & molecular biology, 2020).

Common to all, as to test: cryo-EM structure
In data set [1] the target is FAP385 (Chlamydomonas reinhardtii).
Data set [2] has as its target LC8 (RSP22) (Chlamydomonas reinhardtii).
Data set [3] addresses RSP16 (Chlamydomonas reinhardtii).
Data set [4] deals with the molecule itself.
Data set [5] concerns the molecule itself. The source holds these as a separate data set.

Like-named read-outs stand apart in the source and are kept apart here.

A word on the stoichiometry N: it is the number of molecules, sites or subunits per partner or assembly. FAP385 (natural protein) had a stoichiometry N in data set [1] of 2. As for LC8 (RSP22) (natural protein), the stoichiometry N in data set [2] was 2.

Take RSP16 (natural protein): the stoichiometry N in data set [3] turned out to be 2.

B1: p28 (natural protein, Chlamydomonas reinhardtii, UniProt Q39604 1-253, looked up)
chain: MIPPLSSLVRYDNPVLVSTSKDKGKGAKGTPGKKGALPPVEQKPGLTQTEDILNSILPPREWTEDGQLWVQYVSSTPATRLDVINLQEKLDQQLQQRQARETGICPIREELYAQTFDELIRQVTINCAERGLLLLRVRDEMRMTIAAYQTLYESAVAFGIRKALQTEQGKSEMESRITQLEGDVKDLERQVQEWKFKCEAIEKRESERREVEAKKHKDEVAYLENYAKQLKQQLETFLVPAKKGAPGAPAAAT
In the case of B1, the “stoichiometry N” value in “cryo-EM structure [4]” came out at 2.

B2: RSP9 (natural protein, Chlamydomonas reinhardtii, UniProt Q27YU5 1-269, looked up)
chain: MVQLEPNITLVLKHLASCGAVVSAEQQAALDHSIPIKRIEAGLRSLTLWGRLTTLNGKDYLVAEGYNVASSKEGAAVYETKYFYSQDGARWSDLQPVDSETATRCARIKGMLSGDPAKNYELEEKDPNAPEPSPEAEEEVKPLVFQIPELAVLRCRVDAIATATSVIPTDSTILNAASQVVPNRLFAGAAYPEKLESYQHRFSLPGSGVTLSQDLRGTWAVQYDAFKGVAQVRSLLFPGYFFYYAANELTWGSLYVGDGLRNNDLIFML
For the molecule B2, in the data set “cryo-EM structure [5]”, the “stoichiometry N” value is 2.

B3: DRC4 (natural protein, Chlamydomonas reinhardtii, UniProt Q7XJ96 1-471, looked up)
chain: MAPKKKGTKKESKKDAVATGDIEGASVEELNQKIGTLEKEKNKEEEYRNYMQLERDKINAFWEITKKDLEDRRAELRNKDREMEEMEERHQVEIKVYKQKVKHLLYEHQNNITTLKSDGELALKLQQDEYRKREGDLGKDKRNLKLELKEQELAHQDIIRQLKLEHAKEITKLRQEFEQQAKDLQSKYEKKMKMLRDDMELRRKQEIHEIEERKNTHINELMKKHERAFAEIKNYYNDITHNNLDLIKTLKEDVAEMKRREAANEKLMYEIAQDNKKLSEPLSRALKEVELLRQQLANYDKDKLSLAQTKARLLNAERQIKNLEWENEVLSQRFSKVQTERDELYGKFEASIYDVQQKTGLKSALLEKKVEALGEALEMKEAQLAEVLTAANLDPGTLAAINQRLEEVLDNKNQIIKALQYDVAKVSKAHNDLIRVYEAKLTEFGIPVDELGFRPLVTNTSTGPAGLVVGA
B3: the “stoichiometry N” value in the data set “cryo-EM structure [4]” was 2.
